Among the data in paper PMC7927077, “Glucose-Binding of Periplasmic Protein GltB Activates GtrS-GltR Two-Component System in Pseudomonas aeruginosa” (Microorganisms, 2021) are Kd values, retold here.

A word on the Kd: it is the constant that tells how readily two partners part at equilibrium.

Test [1] deals with T1, GltB (periplasmic glucose-binding protein) (Pseudomonas aeruginosa, UniProt Q9HZ48).
T1 construct: gene PA3190; 6His-GltB, the N-terminal 6His-tagged GltB
Briefly: ITC ([…] °C, one-site model); supported by concentration-dependent thermal shift.

The target in test [2] is 6His-GltB, the N-terminal 6His-tagged GltB (P. aeruginosa PAO1). Briefly: SPR; OpenSPR localized SPR; 6His-GltB fixed on COOH chip by capture-coupling; 6His-PctA^LBD (1500-500 nM) or 6His-PA2788^LBD (500-100 nM) injected; 50 mM Tris, 50 mM NaCl, pH 7.0, 25 °C; one to one model.
In test [3] the target is 6His-GtrS^LBD, the N-terminal 6His-tagged ligand-binding domain of GtrS (residues 29-199) (P. aeruginosa PAO1) (UniProt Q9HZ47). Briefly: SPR; OpenSPR localized SPR; 6His-GtrS^LBD fixed on COOH chip by capture-coupling; 6His-GltB injected at 1000, 500, 250, 125 nM; 50 mM Tris, 50 mM NaCl, pH 7.0, 25 °C; one to one model.

With `OC[C@H]1OC(O)[C@H](O)[C@@H](O)[C@@H]1O` (stereo partly shown) [glucose], the Kd in test [1] is 1370 nM.

For “6His-PctA^LBD, the N-terminal 6His-tagged ligand-binding domain of PctA (residues 30-278) (from UniProt G3XD24 30-278) (domain or fragment)”, the dissociation constant (Kd) in test [2] amounted to 800 nM. In the case of “6His-GltB, the N-terminal 6His-tagged GltB (natural protein)”, the Kd in test [3] turned out to be 100 nM.

B1: 6His-PA2788^LBD, the N-terminal 6His-tagged ligand-binding domain of PA2788 (residues 44-179) (domain or fragment)
chain: YLSMSISPETINVAGAQRMLSQKMAREALQLRLGAGDPKALAATIAQYERSAADLDAGNAERNVSRMGAPEIAAQRQKVAQIWGRYRAMLDQVAQPASQVDLRGFSQYSTELLGELNNLVSLMSARADSVQHTQMW
On to B1, for which, in test [2], the Kd turned out to be 400 nM.
